Consider eight molecules from US20250206836A1 (ONA THERAPEUTICS S L, published 2025).

Residue numbers refer to the chain shown, from its start. Names and notes keep the numbering of the source.

The target in assay [1] is T1, human CD36 (on HEK 293 or SCC25 cells) (human, UniProt P16671 2-472). Description: cell-based or functional assay.
For assay [2], the target named is T1, human CD36 (on HEK 293 or SCC25 cells). Briefly: cell-based or functional assay. The source holds these as a separate data set.
For assay [3] the target is unchanged. Description: cell-based or functional assay. This is another data set of the same source.
The target is the same in assay [4]. Description: FACS, SCC25 cells stably overexpressing human CD36. For orientation: In flow cytometry, cells or beads pass a laser one at a time.
Description: (§1) After transiently transfecting the HEK 293 cells with a CD36 expression construct, cells were treated with three-fold serial dilution of each candidate antibody (10 dilutions starting at 500 nM). […] After incubation with the cells, an anti-human fluorescently labelled antibody was added to the cell media, allowed to incubate further, and the unbound antibody was washed off of the cells. Subsequently, the cells were subjected to FACS analysis to determine antibody binding to the cells. The results were fitted to a sigmoidal titration curve. Using a nonlinear regression model, the EC₅₀ values for each antibody were calculated from the GeoMFI and MFI values using the log(agonist) versus response (four parameters) fitting on the data transformed according to X=Log[X] in GraphPad PRISM.
For assay [5] the target is unchanged. Briefly: FACS, HEK 293 cells transiently overexpressing CD36.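 Note: antibody binding to transfected cells detected by flow cytometry with a fluorescent anti-human secondary antibody, EC50 from a four-parameter sigmoidal fit of mean fluorescence intensity.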
Description: as §1
In assay [6] the target is T2, nonhuman primate CD36 (on HEK 293 cells) (cynomolgus monkey / rhesus macaque, UniProt P16671 2-472 (human entry)).
T2 construct: also called non-human primate CD36 (cynomolgus)
T2 sequence (P16671 other isoform, or with tags, fused parts or gaps limits assumed): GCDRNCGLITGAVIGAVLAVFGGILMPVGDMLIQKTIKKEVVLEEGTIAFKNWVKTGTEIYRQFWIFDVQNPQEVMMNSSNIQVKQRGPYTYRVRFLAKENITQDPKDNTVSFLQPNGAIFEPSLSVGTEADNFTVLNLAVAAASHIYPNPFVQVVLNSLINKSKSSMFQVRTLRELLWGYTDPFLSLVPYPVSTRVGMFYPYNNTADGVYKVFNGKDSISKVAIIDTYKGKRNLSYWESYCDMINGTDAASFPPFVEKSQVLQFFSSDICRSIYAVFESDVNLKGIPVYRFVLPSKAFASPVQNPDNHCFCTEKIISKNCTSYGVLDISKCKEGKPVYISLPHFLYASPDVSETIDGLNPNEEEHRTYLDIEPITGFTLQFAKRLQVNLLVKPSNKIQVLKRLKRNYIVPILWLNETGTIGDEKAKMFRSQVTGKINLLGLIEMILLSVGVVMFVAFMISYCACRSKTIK
The description is as above.
Description: as §1

The target in assay [7] is T3, mouse CD36 (on HEK 293 cells) (mouse, UniProt Q08857 1-472).
T3 construct: also called Murine CD36
T3 sequence (Q08857 whole entry): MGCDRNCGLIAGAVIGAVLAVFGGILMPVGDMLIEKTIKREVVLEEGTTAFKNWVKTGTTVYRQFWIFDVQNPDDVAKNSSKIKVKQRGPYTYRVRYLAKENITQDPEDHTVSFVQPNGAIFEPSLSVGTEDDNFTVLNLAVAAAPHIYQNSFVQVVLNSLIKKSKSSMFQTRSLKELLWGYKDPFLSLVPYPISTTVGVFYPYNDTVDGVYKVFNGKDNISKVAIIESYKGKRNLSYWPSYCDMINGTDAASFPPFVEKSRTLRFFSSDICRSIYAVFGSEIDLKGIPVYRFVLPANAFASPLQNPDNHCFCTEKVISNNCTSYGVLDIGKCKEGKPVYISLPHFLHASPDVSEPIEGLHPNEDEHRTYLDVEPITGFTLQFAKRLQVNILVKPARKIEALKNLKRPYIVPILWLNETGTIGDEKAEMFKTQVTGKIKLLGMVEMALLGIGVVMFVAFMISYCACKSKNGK
The assay is described as above.
Description: as §1

Assay [8] addresses purified biotin-tagged human CD36 (human, UniProt P16671 30-439, limits assumed, biotin tag, site not stated). Description: AlphaScreen competition; competitor 1G04 on acceptor beads.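 Note: streptavidin donor beads excited at 680 nm release singlet oxygen, and the light signal needs a nearby acceptor bead, with 30 min donor-bead incubation at 25 °C in the dark.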 Background: Bead proximity is the source of the signal in Alpha formats.
The target of assay [9] is T4, human CD36 (His-tagged) (human, UniProt P16671 30-439).
T4 construct: not shown: His tag
T4 sequence (P16671 30-439 limits assumed): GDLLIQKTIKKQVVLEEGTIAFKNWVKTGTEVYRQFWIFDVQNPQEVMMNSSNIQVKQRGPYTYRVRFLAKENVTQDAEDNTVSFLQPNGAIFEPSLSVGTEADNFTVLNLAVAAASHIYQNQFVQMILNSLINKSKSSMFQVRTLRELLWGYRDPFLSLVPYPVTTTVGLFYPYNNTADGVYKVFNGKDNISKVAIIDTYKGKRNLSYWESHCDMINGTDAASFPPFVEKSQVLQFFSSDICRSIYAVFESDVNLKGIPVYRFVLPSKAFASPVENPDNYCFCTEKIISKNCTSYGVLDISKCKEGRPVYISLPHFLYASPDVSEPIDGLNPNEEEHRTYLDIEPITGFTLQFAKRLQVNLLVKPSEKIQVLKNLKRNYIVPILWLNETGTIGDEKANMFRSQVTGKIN
Description: SPR (Biacore T200), His-captured CD36, bivalent analyte model.

Assay [10] deals with T1, human CD36 (on HEK 293 or SCC25 cells). Description: FACS, HEK 293 cells transiently overexpressing human CD36.
Description: After incubation with the cells, an anti-human fluorescently labelled antibody was added to the cell media, allowed to incubate further, and the unbound antibody was washed off of the cells. Subsequently, the cells were subjected to FACS analysis to determine antibody binding to the cells. The results were fitted to a sigmoidal titration curve. Using a nonlinear regression model, the EC₅₀ values for each antibody were calculated from the GeoMFI and MFI values using the log(agonist) versus response (four parameters) fitting on the data transformed according to X=Log[X] in GraphPad PRISM.
After transiently transfecting the HEK 293 cells with a CD36 expression construct, cells were treated with three-fold serial dilution of each candidate antibody (10 dilutions starting at 500 nM). […] Antibody binding to cells was measured by FACS as above.

T1 sequence (P16671 2-472 limits assumed): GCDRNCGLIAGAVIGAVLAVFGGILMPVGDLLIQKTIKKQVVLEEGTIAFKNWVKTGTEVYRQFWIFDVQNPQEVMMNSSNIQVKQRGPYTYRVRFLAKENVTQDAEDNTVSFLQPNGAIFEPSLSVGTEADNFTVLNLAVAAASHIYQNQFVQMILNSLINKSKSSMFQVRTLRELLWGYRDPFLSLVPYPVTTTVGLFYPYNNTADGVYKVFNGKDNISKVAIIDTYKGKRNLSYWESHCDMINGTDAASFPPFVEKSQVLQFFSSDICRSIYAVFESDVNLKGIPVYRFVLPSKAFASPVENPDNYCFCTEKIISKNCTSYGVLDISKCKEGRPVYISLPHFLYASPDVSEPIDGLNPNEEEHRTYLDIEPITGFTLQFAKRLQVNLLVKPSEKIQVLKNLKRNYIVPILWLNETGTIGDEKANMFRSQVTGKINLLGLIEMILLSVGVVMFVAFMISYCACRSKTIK
purified biotin-tagged human CD36, sequence (P16671 30-439 limits assumed): as the sequence (P16671 30-439 limits assumed) above

B1: 7G04 (antibody, human IgG1, V domains shown)
VH: QVQMKESGAELVRPGASVKLSCKALGYTFTDYEIQWVKQTPVHGLEWIGGIHPGSSGIVYNQKFKGKATLTADKSSSTAYMELSSLTSEDSAVYYCTRGGGYDGAWFAYWGQGSLVTVSA
VL: ETTVTQSPASLSMAIGEKVTIRCITSTDIDDDMNWYQQKPGEPPKLLISEGNTLRPGVPSRFSSSGYGTDFVFTIENMLSEDVADYYCLQSDNLPFTFGSGTKLEIK
notes: Chimeric: mouse variable regions on human IgG1 LALA (L234A/L235A); also called 07G04; 007G04
What is called EC50 is the concentration giving half of the maximal effect. A word on the koff: it is the first-order rate constant of dissociation. By kon is commonly meant the rate constant with which the complex forms. For B1, the “Percent Fatty Acid Uptake Inhibition” value in [1] is 37.4%. Besides, the “IC50 of fatty acid uptake inhibition (BODIPY FL C16, HEK hCD36 cells)” value in assay [2] came out at 1 nM. In addition, in assay [3], the “IC50 of oxLDL uptake inhibition (DiI-oxLDL, SCC25 cells)” value was 0.27 nM. The EC50 was found to be 0.68 nM in assay [4]; 0.48 nM in assay [5]; 4.16 nM in [6]; 3.73 nM in assay [7]; 0.95 nM in assay [8]. This molecule also showed a Kd in assay [9] of 4.9 nM. In addition, in assay [9], the koff came out at 0.0035 s⁻¹. In [9], this molecule registered a kon of 710000 M⁻¹ s⁻¹.

B2: 28G04 (antibody, human IgG1, V domains shown)
VH: EVQLQQSGPELVKPGASVKISCKTSGYTFTEYTIHWVKQSHGKSLEWIGGIIPNNGGSSHKQNFKDKATLTVDKSSSTAYMELRSLTSEDSAVYYCARAGDYAFDYWGQGTTLTVSS
VL: B1 VL with D92G, N93T
notes: Chimeric: mouse variable regions on human IgG1 LALA (L234A/L235A); also called 028G04
As for B2, the “Percent Fatty Acid Uptake Inhibition” value in [1] was 39.7%. The “IC50 of fatty acid uptake inhibition (BODIPY FL C16, HEK hCD36 cells)” value in assay [2] is 0.09 nM. Further, in assay [3], the “IC50 of oxLDL uptake inhibition (DiI-oxLDL, SCC25 cells)” value stood at 1.67 nM. Further, the EC50 in assay [4] was 0.95 nM; in assay [5], 0.6 nM; in assay [6], 7.77 nM; in assay [7], 8.5 nM; in assay [8], 4.69 nM. The same molecule registered a Kd in assay [9] of 14 nM. In assay [9], the dissociation rate constant (koff) was 0.013 s⁻¹. Moreover, in [9], the kon stood at 870000 M⁻¹ s⁻¹.

B3: 11G06 (antibody, human IgG1, V domains shown)
VH: EVQLQQSGAELVRPGASVTLSCKASGYRFSDYEMQWVKQTPVHGLEWIGGIDPETGGIAYNQKFKVKATLTADKSSSTAFMELRSLTSEDSAVYYCTRKLDFDYWGQGTTLTVSS
VL: B1 VL with M13V, I15T, F96L, S100A, I106L
B3 showed an EC50 in assay [10] of 0.76 nM.

B4: 73G06 (antibody, human IgG1, kappa)
heavy: EVQLVQSGAEVKKPGSSVKVSCKASGYRFSDYEMQWVRQAPGQGLEWMGGIDPETGGIAYAQKFQGRVTLTADKSTSTAYMELSSLRSEDTAVYYCTRKLDFDYWGQGTLVTVSSASTKGPSVFPLAPSSKSTSGGTAALGCLVKDYFPEPVTVSWNSGALTSGVHTFPAVLQSSGLYSLSSVVTVPSSSLGTQTYICNVNHKPSNTKVDKKVEPKSCDKTHTCPPCPAPESTRGPSVFLFPPKPKDTLYITREPEVTCVVVDVSHEDPEVKFNWYVDGVEVHNAKTKPREEQYNSTYRVVSVLTVLHQDWLNGKEYKCKVSNKALPAPIEKTISKAKGQPREPQVYTLPPSRDELTKNQVSLTCLVKGFYPSDIAVEWESNGQPENNYKTTPPVLDSDGSFFLYSKLTVDKSRWQQGNVFSCSVMHEALHNHYTQKSLSLSPGK
light: ETTVTQSPAFMSATTGDKVTISCITSTDIDDDMNWYQQKPGEPPKLLISEGNTLRPGVPSRFSSSGYGTDFTFTINNIESEDAAYYYCLQSDNLPLTFGQGTKLEIKRTVAAPSVFIFPPSDEQLKSGTASVVCLLNNFYPREAKVQWKVDNALQSGNSQESVTEQDSKDSTYSLSSTLTLSKADYEKHKVYACEVTHQGLSSPVTKSFNRGEC
notes: Humanized 11G04, human IgG1 STR
Consider B4, for which the EC50 in [10] came to 0.87 nM.

B5: 75G06 (antibody, human IgG1, kappa)
heavy: B4 heavy
light: B4 light with T15P
notes: as for B4
B5: the midpoint of the response in assay [10], the EC50, lay at 0.98 nM.

B6: 76G06 (antibody, human IgG1, kappa)
heavy: B4 heavy with E1Q
light: B4 light with T15P
notes: as for B4
Molecule B6 gave an EC50 in [10] of 0.88 nM.

B7: 74G06 (antibody, human IgG1, kappa)
heavy: B4 heavy with E1Q
light: B4 light
notes: as for B4
B7 registered an EC50 in assay [10] of 1.1 nM.

B8: 77G06 (antibody, human IgG1, kappa)
heavy: B4 heavy
light: B4 light with N52S
notes: as for B4
In assay [10], B8 came in with an EC50 of 0.81 nM.
